Measured values from US11660340B2, “Combination therapy using T cell redirection antigen binding molecule against cell having immunosuppressing function” (CHUGAI SEIYAKU KABUSHIKI KAISHA, priority 2015, dated 2023).

T1: mFcgRII (Mus musculus, UniProt P08101)
T1 sequence (P08101 30-330): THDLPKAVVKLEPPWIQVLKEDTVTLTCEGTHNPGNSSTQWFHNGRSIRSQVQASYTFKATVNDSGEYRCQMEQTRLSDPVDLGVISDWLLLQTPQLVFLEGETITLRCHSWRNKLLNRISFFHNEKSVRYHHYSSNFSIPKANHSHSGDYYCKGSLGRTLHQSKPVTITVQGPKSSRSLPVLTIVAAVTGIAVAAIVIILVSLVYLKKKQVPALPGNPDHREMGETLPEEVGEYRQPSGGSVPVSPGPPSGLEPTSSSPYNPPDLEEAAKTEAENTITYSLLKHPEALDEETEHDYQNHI

T2: mFcgRIII (Mus musculus, UniProt P08508)
T2 sequence (P08508 31-261): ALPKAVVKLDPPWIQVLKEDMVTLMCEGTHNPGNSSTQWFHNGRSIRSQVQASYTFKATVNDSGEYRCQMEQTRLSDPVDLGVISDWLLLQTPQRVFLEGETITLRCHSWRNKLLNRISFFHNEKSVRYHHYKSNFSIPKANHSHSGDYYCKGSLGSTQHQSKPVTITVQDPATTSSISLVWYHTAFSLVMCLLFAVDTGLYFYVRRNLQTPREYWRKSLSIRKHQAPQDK

T3: mFcgRIV (Mus musculus, UniProt A0A0B4J1G0)
T3 sequence (A0A0B4J1G0 21-249): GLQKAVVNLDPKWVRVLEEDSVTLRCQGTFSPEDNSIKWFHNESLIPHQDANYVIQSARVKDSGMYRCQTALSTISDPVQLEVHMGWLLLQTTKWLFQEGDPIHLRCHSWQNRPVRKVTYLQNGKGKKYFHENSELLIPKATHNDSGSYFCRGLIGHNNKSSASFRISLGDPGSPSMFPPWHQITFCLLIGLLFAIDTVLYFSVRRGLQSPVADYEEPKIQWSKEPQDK

T4: mFcgRI (Mus musculus, UniProt P26151)
T4 sequence (P26151 25-404): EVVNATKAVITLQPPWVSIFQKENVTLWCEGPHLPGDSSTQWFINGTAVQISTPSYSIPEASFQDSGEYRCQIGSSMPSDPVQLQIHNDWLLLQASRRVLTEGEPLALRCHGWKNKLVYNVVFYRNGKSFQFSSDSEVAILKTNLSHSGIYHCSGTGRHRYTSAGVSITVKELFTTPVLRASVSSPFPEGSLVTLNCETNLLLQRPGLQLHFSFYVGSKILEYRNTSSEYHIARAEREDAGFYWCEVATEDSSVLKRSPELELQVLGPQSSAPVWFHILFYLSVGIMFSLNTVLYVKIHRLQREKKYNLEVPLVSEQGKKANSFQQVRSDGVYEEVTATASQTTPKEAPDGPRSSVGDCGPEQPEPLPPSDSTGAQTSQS


Legend:
CT26.WT cells = test: Combined use of mCTLA4/mCD3 and gemcitabine, CT26.WT cell-transplanted model; format: in vivo; conditions: final measurement point; mCTLA4/mCD3 25 μg/mouse day 9, gemcitabine 120 mg/kg day 8, tail vein; n=5; FIG. 19
Procedure: BALB/cA mice and C57BL/6N mice were purchased from Charles River Laboratories Japan, Inc. The CT26.WT cells or the CT26/hGPC3 cells were transplanted subcutaneously to BALB/cA mice, and the LL/2 (LLC1) cells or the LLC1/hGPC3 cells were transplanted subcutaneously to C57BL/6N mice. Models were established when the average volume of the transplanted tumors reached approximately 100 mm^3 to 200 mm^3.
The volume of the transplanted tumor was calculated using the following equation: Tumor volume (mm^3)=major axis (mm)×minor axis (mm)×minor axis (mm)/2
As the pharmaceutical agents to be administered for the combined use test, the anti-mouse CTLA4/anti-mouse CD3 bispecific monoclonal antibody (mCTLA4/mCD3) was prepared at 0.125 mg/mL in PBS (−), and a pyrimidine analog (antimetabolite), gemcitabine (Gemzar: Eli Lilly Japan) was prepared at 12 mg/mL in physiological saline solution (Otsuka Pharmaceutical).
To evaluate the effects of combined use of the anti-mouse CTLA4/anti-mouse CD3 bispecific monoclonal antibody (mCTLA4/mCD3) and gemcitabine, the CT26.WT cell-transplanted model was used and given through the tail vein gemcitabine at 120 mg/kg eight days after transplantation and […] at 25 μg/mouse nine days after transplantation.
Antitumor effects were evaluated from the tumor volumes calculated using the equation shown in (2) of Example 1. […]

mFcgRII = target: T1, mFcgRII; test: Biacore T200 binding of anti-mouse CTLA4 antibody to mouse FcgR; conditions: 1:1 binding RI = 0, 25° C., pH7.4
Procedure: (§1) Anti-mouse CTLA4 antibody hUH02hUL01-mFa55 and control antibody hUH02hUL01-mIgG2a (the heavy chain variable region UH02 is SEQ ID NO: 28, the light chain variable region UL01 is SEQ ID NO: 29, the heavy chain constant region mIgG2a is SEQ ID NO: 32, and the light chain constant region mk1 is SEQ ID NO: 31) purified and prepared by the method of Reference Example 2-1 were analyzed for their antigen-antibody reactions with various mouse FcgRs (mFcgRI, II, III, and IV) using Biacore™ T200 (GE Healthcare). The running buffer used was 20 mmol/L ACES, 150 mmol/L NaCl, 0.05% (w/v) Tween®20 at pH7.4, and measurements were taken at 25° C. Protein A/G was immobilized onto a Sensor Chip CM7 by amine coupling. hUH02hUL01-mFa55 was captured onto the sensorchip, and then FcgR was allowed to interact as an analyte for 120 seconds, and change in the bound amount was observed. The running buffer was used for dilution of hUH02hUL01-mFa55. The measurement results were analyzed by curve fitting using the Biacore™ T200 Evaluation Software (GE Healthcare) to calculate the association rate constants ka (l/Ms) and the dissociation rate constants kd (l/s). From those values, the dissociation constants KD (M) were determined.

mFcgRIII = target: T2, mFcgRIII; test: as above; conditions: 1.1 binding RI = 0, 25° C., pH7.4
Procedure: as §1

mFcgRIV = target: T3, mFcgRIV; test: as above; conditions: 1:1 binding RI = 0, 25° C., pH7.4
Procedure: as §1

mFcgRI = target: T4, mFcgRI; test: as above; conditions: 1:1 binding RI = 0, 25° C., pH7.4
Procedure: as §1

[1] = tested on: mouse CTLA4-expressing cells (CHO/mouse CTLA4 cells); test: ADCC activity, chromium-release assay with mFcgR4-NK92 effector cells; format: cell-based; conditions: antibody 0, 0.04, 0.4, 4, 40 μg/ml, FIG. 5
Description: Whether anti-mouse CTLA4 antibody hUH02hUL01-mFa55 purified and prepared by the method of Reference Example 2-1 exerts ADCC activity on mouse CTLA4-expressing cells (mouse CTLA4-expressing cells were produced by a method known to those skilled in the art by introducing the full length mouse CTLA4 gene into CHO cells) was examined according to the method of Reference Example 11.
Regarding anti-mouse CTLA4 antibodies, antibody concentration-dependent ADCC activities of test antibodies were measured, using the mouse FcgR4-expressing human NK cell line NK-92 (hereinafter referred to as mFcgR4-NK92) as effector cells by following the method described below.
After washing mFcgR4-NK92 with RPMI-1640 (nacalai tesque) containing 10% FBS (hereinafter referred to as 10% FBS/RPMI), the cells were suspended in 10% FBS/RPMI at a cell density of 4×10^5 cells/ml. […]
The ADCC activities were evaluated from the specific chromium release rate according to the chromium release method. […] The radioactivity of 100 μl of culture supernatant in each well of the plate was measured using a gamma counter. The specific chromium release rate was determined based on the following equation. […] The examinations were performed in duplicate and the mean value for the specific chromium release rate (%) of the test antibody was calculated.

Row | Molecule | tumor volume vs. the PBS-administered group (Tukey multiple comparison test) (CT26.WT cells) | ka (mFcgRII) [M⁻¹ s⁻¹] | kd (mFcgRII) [s⁻¹] | ka (mFcgRIII) [M⁻¹ s⁻¹] | kd (mFcgRIII) [s⁻¹] | ka (mFcgRIV) [M⁻¹ s⁻¹] | kd (mFcgRIV) [s⁻¹] | ka (mFcgRI) [M⁻¹ s⁻¹] | kd (mFcgRI) [s⁻¹] | ADCC activity (specific chromium release rate) [1]
1 | Nc1ccn([C@@H]2O[C@H](CO)[C@@H](O)C2(F)F)c(=O)n1 [gemcitabine] | significant differences (p<0.05) |  |  |  |  |  |  |  |  | 
2 | hUH02hUL01-mFa55: anti-mouse CTLA4 antibody, mouse IgG2a/kappa, constant region mFa55 modified to enhance binding to mouse FcγR (ADCC-enhanced) (antibody) heavy: QVQLQESGPGLVKPSETLSLTCTVSGYSISSGYGWNWIRQPPGKGLEWIGFIYYEGSTYYNPSIKSRISITRDTSKNQFFLQVNSVTTEDTATYYCARQTGYFDYWGQGTLVTVSSAKTTAPSVYPLAPVCGDTTGSSVTLGCLVKGYFPEPVTLTWNSGSLSSGVHTFPAVLQSDLYTLSSSVTVTSSTWPSQSITCNVAHPASSTKVDKKIEPRGPTIKPCPPCKCPAPNLLGGPDVFIFPPKIKDVLMISLSPIVTCVVVDVSEDDPDVQISWFVNNVEVHTAQTQTHREDYNSTLRVVSALPIQHQDWMSGKEFKCKVNNKDLPAPIERTISKPKGSVRAPQVYVLPPPEEEMTKKQVTLTCMVTDFMPEDIYVEWTNNGKTELNYKNTEPVLDSDGSYFMYSKLRVEKKNWVERNSYSCSVVHEGLHNHHTTKSFSRTPGK light: DIVMTQSPDSLAVSLGERATINCKSSQSLFNSNAKTNYLNWYQQKPGQPPKLLIYYASTRHTGVPDRFSGSGSGTDFTLTISSLQAEDVAVYYCQQWYDYPYTFGAGTKVEIKRADAAPTVSIFPPSSEQLTSGGASVVCFLNNFYPKDINVKWKIDGSERQNGVLNSWTDQDSKDSTYSMSSTLTLTKDEYERHNSYTCEATHKTSTSPIVKSFNRNEC |  | 2.1e+06 | 0.76 | 2.4e+06 | 0.62 | 1.5e+06 | 0.0028 | 1.2e+06 | 0.0031 | ADCC activity in an antibody concentration-dependent manner
